Results from patent publication US20110243928A1 (published 2011).
Changes are numbered by the printed parent chain. Values belong to the binder of their own block, whether it stands above or below them.

Legend:
[1] = biological target: T1, 16mer biotinylated human IL-13 peptide number 24 (human, N-terminal biotin; C-terminal amide); experiment: BIAcore analysis 3, antibody over biotinylated peptide on SA chip
T1 construct: format Biotin-SGSG-PEPTIDE-amide; also called Peptide 24
T1 peptide: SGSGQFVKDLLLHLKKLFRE
Procedure: Completed for the 16mer biotinylated human IL-13 peptide number 24 (identified as the linear binding epitope for parental mAb 6A1, see section 6.7). Note that the absolute KD values obtained for binding to peptide ligands are often quite different to those seen for binding to whole protein targets.
The kinetics analysis was performed on a Biacore 3000 machine using direct binding of antibody to immobilised IL-13 peptide. Briefly, IL-13 biotinylated peptide was captured using a Biacore SA (strepavidin) Biosensor chip. The antibodies were then passed over the sensor surface at various concentrations. The subsequent binding curves were analysed with Biacore analysis software BIAeval 4.1 to determine kinetics. The experiment was carried out using Biacore HBS-EP buffer

[2] = biological target: T2, E. coli-expressed recombinant human IL-13 (human, UniProt P35225 35-146); experiment: human IL-13 binding sandwich ELISA
T2 construct: Untagged E. coli-expressed human IL-13; also called hIL-13; human IL13 (CA)

[3] = biological target: T3, E. coli-expressed recombinant human GM-CSF (human, UniProt P04141 18-144); experiment: sandwich ELISA
[4] = biological target: T4, E. coli-expressed recombinant cynomolgus IL-13 (cynomolgus, UniProt Q5I6E4 21-132 (Macaca thibetana entry)); experiment: BIAcore analysis 4, antibody captured on Protein A, IL-13 in solution
T4 construct: also called cyno IL13 (CA); cIL-13
T4 chain: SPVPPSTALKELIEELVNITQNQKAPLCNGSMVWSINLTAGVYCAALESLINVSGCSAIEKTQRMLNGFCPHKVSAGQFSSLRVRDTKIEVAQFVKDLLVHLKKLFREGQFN
Procedure: (§1) Completed for both human and cynomolgus IL-13 (E. coli-expressed protein). The quoted KD values are the average from 5 different IL-13 concentration curves (done in triplicate).
(§2) The kinetics analysis was performed on a Biacore 3000 machine, using an antibody capture method. Briefly, for the chimeric 6A1 and humanised antibody constructs Protein A capture was used, whilst for the parental murine 6A1 antibody, capture was by a anti-mouse Fc antibody supplied by Biacore. Briefly, the method is as follows, the capture ligand was immobilised to a CM5 Biosensor chip by primary amine coupling in accordance with Biacore standard protocols and using the reagents supplied in Biacores' primary amine coupling kit. The method involves activation CM5 sensor surface by passing a solution of 50 mM N-hydroxy-succinimide (NHS) and 200 mM N-ethyl-N′-dimethylaminopropyl […] (EDC) over the surface. Then, the capture ligand (dissolved in acetate buffer pH5 or pH4.5) was coupled to the activated sensor surface after which any still activated esters were blocked by an injection of 1M ethanolamine hydrochloride, pH8.5.
(§3) The candidate antibody was then passed over the Protein A or anti-mouse Fc antibody surface, depending on whether it was human or mouse in origin and captured. Once a stable binding signal was seen IL13 was passed over the captured antibody surface at various defined concentrations. The subsequent binding curves were analysed with Biacore analysis software BIAeval v4.1 to determine kinetics. The experiments were carried out using Biacore HBS-EP buffer.

[5] = biological target: T2, E. coli-expressed recombinant human …; experiment: as above
Procedure: as §1, §2, §3

[6] = biological target: T5, E. coli-expressed recombinant det-1 tagged human IL-13 (human, UniProt P35225 35-146); experiment: competition ELISA: inhibition of det-1 tagged human IL-13 binding to human IL-13Rα1-Fc
T5 construct: also called Det-1 tagged human IL-13 (made in-house); not shown: det-1 tag

[7] = biological target: T6, E. coli-expressed recombinant human IL-4 (human, UniProt P05112 25-153); experiment: human IL-4 binding sandwich ELISA
T6 sequence (looked up): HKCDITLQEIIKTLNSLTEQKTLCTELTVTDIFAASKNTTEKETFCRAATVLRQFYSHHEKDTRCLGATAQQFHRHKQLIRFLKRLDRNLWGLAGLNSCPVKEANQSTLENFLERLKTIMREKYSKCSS

[8] = biological target: T4, E. coli-expressed recombinant …; experiment: BIAcore analysis 1, antibody captured, IL-13 in solution
Procedure: (§4) Completed for both human and cynomolgus IL-13 (E. coli-expressed protein). The quoted KD values are the average from 5 different IL-13 concentration curves (done in triplicate). Note that mass transfer issues were apparent in this analysis and that a modified experimental protocol (to correct for this issue) has been completed in analysis 4 (where no mass transfer issues were present).
as §2, §3

[9] = biological target: T2, E. coli-expressed recombinant human …; experiment: as above
Procedure: as §4, §2, §3

[10] = biological target: T4, E. coli-expressed recombinant …; experiment: cynomolgus IL-13 binding sandwich ELISA
[11] = biological target: T7, native (PBMC derived) human IL-13 (human, UniProt P35225 35-146, limits assumed); experiment: ELISA on Th2 cell supernatant read against a standard curve
T7 construct: IL-13 in supernatant of stimulated human CD4+ Th2 cells; also called native human IL-13; Native IL-13

[12] = biological target: T4, E. coli-expressed recombinant …; experiment: cell-based or functional assay
[13] = biological target: mammalian-expressed (CHO cell) human IL-13 (human, UniProt P35225 35-146, limits assumed); experiment: cell-based or functional assay
[14] = biological target: E. coli-expressed recombinant Q130 human IL-13 (human, UniProt P35225 35-146, limits assumed); experiment: cell-based or functional assay
[15] = biological target: T2, E. coli-expressed recombinant human …; experiment: cell-based or functional assay
[16] = biological target: T5, E. coli-expressed recombinant det-1 …; experiment: competition ELISA: inhibition of det-1 tagged human IL-13 binding to human IL-13Rα2-Fc
[17] = biological target: T3, E. coli-expressed recombinant human …; experiment: binding ELISA
[18] = biological target: T6, E. coli-expressed recombinant human IL-4; experiment: binding ELISA
[19] = biological target: T2, E. coli-expressed recombinant human …; experiment: human IL-13 binding ELISA, CHO supernatant
[20] = biological target: T2, E. coli-expressed recombinant human …; experiment: sandwich ELISA

T5 sequence (P35225 other isoform, or with tags, fused parts or gaps): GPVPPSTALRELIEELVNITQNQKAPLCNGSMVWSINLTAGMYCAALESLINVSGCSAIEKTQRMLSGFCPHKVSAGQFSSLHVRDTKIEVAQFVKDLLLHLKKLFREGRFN
T2 sequence (P35225 other isoform, or with tags, fused parts or gaps): as above
Sequence of E. coli-expressed recombinant Q130 human IL-13 (P35225 35-146 limits assumed): as the sequence (P35225 other isoform, or with tags, fused parts or gaps) above, with R110Q counted along it
Sequence of mammalian-expressed (CHO cell) human IL-13 (P35225 other isoform, or with tags, fused parts or gaps limits assumed): as the sequence (P35225 other isoform, or with tags, fused parts or gaps) above
T7 sequence (P35225 other isoform, or with tags, fused parts or gaps limits assumed): as the sequence (P35225 other isoform, or with tags, fused parts or gaps) above
T3 sequence (P04141 18-144 limits assumed): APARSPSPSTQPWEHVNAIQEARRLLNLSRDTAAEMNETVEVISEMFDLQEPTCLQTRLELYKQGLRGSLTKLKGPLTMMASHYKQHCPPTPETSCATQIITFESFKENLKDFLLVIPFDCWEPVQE

B3: A2L1 (antibody, human IgG1, kappa, V domains shown)
VH: QVQLVQSGAEVKKPGSSVKVSCKASGFYIKDTYMHWVIQAPGQGLEWMGTIDPANGNTKYVPKFQGRVTITADESTSTAYMELSSLRSEDTAVYYCARSIYDDYHYDDYYAMDYWGQGTLVTVSS
VL: DIVMTQSPLSLPVTPGEPASISCRSSQNIVHINGNTYLEWYLQKPGQSPRLLIYKISDRFSGVPDRFSGSGSGTDFTLKISRVEADDVGIYYCFQGSHVPWTFGQGTKLEIKR
notes: Humanised 6A1 combination, tested as CHO cell supernatant
- binding result [19]: binds

B6: A2L2 (antibody, human IgG1, kappa, V domains shown)
VH: B3 VH
VL: B3 VL with I90V
notes: as for B3
- binding result [19]: binds

B7: A3L1 (antibody, human IgG1, kappa, V domains shown)
VH: B3 VH with E74T
VL: B3 VL
notes: as for B3
- binding result [19]: binds

B8: A4L1 (antibody, human IgG1, kappa, V domains shown)
VH: B3 VH with K19R, E74T, E82R
VL: B3 VL
notes: as for B3
- binding result [20]: binds

Further lines, results first:

- Kd [1]: 3.58 nM
- koff [1]: 0.000919 s⁻¹
- kon [1]: 257000 M⁻¹ s⁻¹
- EC50 [2]: 0.015 µg/mL
- binding result [3]: no binding
- Kd [4]: 0.03 nM
- koff [4]: 2.65e-05 s⁻¹
- kon [4]: 885000 M⁻¹ s⁻¹
- Kd [5]: 0.038 nM
- koff [5]: 4e-05 s⁻¹
- kon [5]: 1.05e+06 M⁻¹ s⁻¹
- IC50 [6]: 0.034 µg/mL
- binding result [7]: no binding
- Kd [8]: 0.055 nM
- koff [8]: 3.27e-05 s⁻¹
- kon [8]: 592000 M⁻¹ s⁻¹
- Kd [9]: 0.043 nM
- koff [9]: 2e-05 s⁻¹
- kon [9]: 464000 M⁻¹ s⁻¹
- EC50 [10]: 0.018 µg/mL
- Native IL-13 (ng/ml) detected in Th2 supernatant [11]: 19.6 ng/mL
- Mean ND50 for 2 assays [12]: 0.059 µg/mL
- Mean ND50 for 2 assays [13]: 0.285 µg/mL
- Mean ND50 for 2 assays [14]: 0.128 µg/mL
- Mean ND50 for 2 assays [15]: 0.119 µg/mL
- IC50 [16]: 0.04 µg/mL
B1: chimaeric 6A1 (antibody, human IgG1, V domains shown)
VH: EIQLQQSVAELVRPGASVRLSCTASGFYIKDTYMHWVIQRPEQGLEWIGTIDPANGNTKYVPKFQGKATITADTSSNTAYLRLSSLTSEDTAIYYCARSIYDDYHYDDYYAMDYWGQGTSVTVSS
VL: DVLMTQTPLSLPVSLGDQASISCRSSQNIVHINGNTYLEWYLQKPGQSPKLLIYKISDRFSGVPDRFSGSGSGTDFTLKISRVEAEDLGVYYCFQGSHVPWTFGGGTKLEIK
notes: Parent murine 6A1 V regions on human IgG1/k wild type C regions, expressed in CHO cells; also called 6A1c; 6A1 chimaeric antibody

- Kd [1]: 9.35 nM
- koff [1]: 0.00167 s⁻¹
- kon [1]: 179000 M⁻¹ s⁻¹
- EC50 [2]: 0.024 µg/mL
- Kd [4]: 0.055 nM
- koff [4]: 4.25e-05 s⁻¹
- kon [4]: 772000 M⁻¹ s⁻¹
- Kd [5]: 0.153 nM
- koff [5]: 0.000139 s⁻¹
- kon [5]: 907000 M⁻¹ s⁻¹
- IC50 [6]: 0.056 µg/mL
- Kd [8]: 0.097 nM
- koff [8]: 5.58e-05 s⁻¹
- kon [8]: 577000 M⁻¹ s⁻¹
- Kd [9]: 0.31 nM
- koff [9]: 0.000156 s⁻¹
- kon [9]: 507000 M⁻¹ s⁻¹
- EC50 [10]: 0.028 µg/mL
- binding result [17]: no binding (tested: 30 µg/ml)
- binding result [18]: no binding (tested: 30 µg/ml)
- Native IL-13 (ng/ml) detected in Th2 supernatant [11]: 22.7 ng/mL
- Mean ND50 for 2 assays [12]: 0.12 µg/mL
- Mean ND50 for 2 assays [13]: 1.2 µg/mL
- Mean ND50 for 2 assays [14]: 0.705 µg/mL
- Mean ND50 for 2 assays [15]: 0.608 µg/mL
- IC50 [16]: 0.117 µg/mL
B2: L2+A1 (antibody, human IgG1, kappa, V domains shown)
VH: B3 VH with I38R
VL: B3 VL with I90V
notes: Humanised 6A1, VH construct A1 and VL construct L2; also called A1L2

- binding result [19]: binds
B4: A3L2 (antibody, human IgG1, kappa, V domains shown)
VH: B3 VH with E74T
VL: B3 VL with I90V
notes: as for B3

- binding result [20]: binds
B5: A4L2 (antibody, human IgG1, kappa, V domains shown)
VH: B3 VH with K19R, E74T, E82R
VL: B3 VL with I90V
notes: as for B3
